Measurements published in patent US20230158141A1 (YAFEI SHANGHAI BIOLOG MEDICINE SCIENCE AND TECHNOLOGY, published 2023).
Changes are numbered by the printed parent chain. Names and notes keep the numbering of the source. Where two headings read alike, the source gives them in different places.

Key:
PD-1 [1] = target: PD-1 (UniProt Q15116 25-167, limits assumed); assay: ELISA, OD mutant/OD WT; ↓=less than 70%
PD-1 [2] = target: T1, PD-1 (UniProt Q15116 25-167, limits assumed); assay: ELISA, EC50 fold change; S47 on the Cys
T1 construct: also called PD-1 antigen

mouse PD-1 protein = target: T2, mouse PD-1 protein (mouse, UniProt Q02242 25-167, limits assumed); assay: ELISA, TMEAbody against WT J43v2
T2 sequence (looked up): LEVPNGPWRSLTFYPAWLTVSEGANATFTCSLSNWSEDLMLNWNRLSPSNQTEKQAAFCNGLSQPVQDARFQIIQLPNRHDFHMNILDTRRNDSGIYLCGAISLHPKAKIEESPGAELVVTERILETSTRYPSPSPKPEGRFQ

CTLA-4 [3] = target: T3, CTLA-4 (UniProt P16410 36-162, limits assumed); assay: ELISA, OD mutant/OD WT; B=70-90%
CTLA-4 [4] = target: T4, CTLA-4 (UniProt P16410 36-162, limits assumed); assay: ELISA; S47 on the Cys
T4 construct: also called CTLA-4 protein

CTLA-4 [5] = target: T4, CTLA-4; assay: ELISA; R4-1 on the Cys
[6] = target: T5, human CTLA-4 Fc fusion protein (R&D systems) (human, UniProt P16410 37-162); assay: receptor blocking ELISA against biotinylated B7-1 or B7-2; TMEAbody (S47 conjugate)
T5 construct: bought
T5 sequence (P16410 37-162 limits assumed): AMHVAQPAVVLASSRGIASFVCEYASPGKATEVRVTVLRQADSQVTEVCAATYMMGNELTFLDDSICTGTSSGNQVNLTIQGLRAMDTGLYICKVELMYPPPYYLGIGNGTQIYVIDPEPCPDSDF

[7] = target: T5, human CTLA-4 Fc fusion protein (R&D …); assay: ELISA, fold change of EC50; S47 on the Cys
CTLA-4 [8] = target: T4, CTLA-4; assay: ELISA; R4-1 on the Cys; remark: listed apart in the source
CTLA-4 [9] = target: T3, CTLA-4; assay: ELISA, OD mutant/OD WT; ↓=less than 70%
[10] = target: T6, human Fc tagged PD-1 protein (Sino Biological) (human, UniProt Q15116 25-167); assay: ELISA, EC50 fold change; S47 on the Cys
T6 construct: bought; also called Fc tagged human PD-1 protein
T6 sequence (Q15116 25-167 limits assumed): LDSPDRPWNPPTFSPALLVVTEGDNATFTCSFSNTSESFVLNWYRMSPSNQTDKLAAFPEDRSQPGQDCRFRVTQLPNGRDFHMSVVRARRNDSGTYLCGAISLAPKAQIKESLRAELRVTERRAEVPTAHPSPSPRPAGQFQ

IL2Rβ-Fc = target: T7, IL2Rβ-Fc (UniProt P14784 27-239, limits assumed); assay: ELISA, against wild type IL2
T7 construct: also called IL2Rb; not shown: Fc part, not described
T7 sequence (looked up): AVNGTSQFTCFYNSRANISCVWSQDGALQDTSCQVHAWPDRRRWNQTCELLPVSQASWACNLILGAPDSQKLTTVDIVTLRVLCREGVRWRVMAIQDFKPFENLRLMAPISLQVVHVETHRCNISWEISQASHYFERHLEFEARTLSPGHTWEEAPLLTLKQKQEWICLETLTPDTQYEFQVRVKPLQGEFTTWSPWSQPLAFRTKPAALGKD

mouse CTLA-4 protein = mouse CTLA-4 protein (mouse, UniProt P09793 36-162, limits assumed); assay: ELISA, TMEAbody against WT 9D9
CD28 = CD28 (UniProt P10747 19-152, limits assumed); assay: ELISA, conjugate vs WT antibody
His tagged VEGF protein = His tagged VEGF protein (UniProt P15692-4 27-191, limits assumed); assay: ELISA, His tagged VEGF protein
Chain of His tagged VEGF protein (P15692 other isoform, or with tags, fused parts or gaps limits assumed): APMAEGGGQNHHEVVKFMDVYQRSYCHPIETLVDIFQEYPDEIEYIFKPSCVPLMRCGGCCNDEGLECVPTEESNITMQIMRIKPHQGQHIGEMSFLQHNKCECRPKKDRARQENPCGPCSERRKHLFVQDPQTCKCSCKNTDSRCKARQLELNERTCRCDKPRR

B1: anti-PD-1 antibody 2 light chain Y32C (antibody, human IgG4 S228P, kappa, V domains shown)
VH: QVQLVESGGGVVQPGRSLRLDCKASGITFSNSGMHWVRQAPGKGLEWVAVIWYDGSKRYYADSVKGRFTISRDNSKNTLFLQMNSLRAEDTAVYYCATNDDYWGQGTLVTVSS
VL: EIVLTQSPATLSLSPGERATLSCRASQSVSSCLAWYQQKPGQAPRLLIYDASNRATGIPARFSGSGSGTDFTLTISSLEPEDFAVYYCQQSSNWPRTFGQGTKVEIKR
binding activity vs wild type (PD-1 [1]): < 70%

B2: Niv-se007 (Nivolumab light chain Ser91Cys) (antibody, human IgG4 S228P, kappa, V domains shown)
VH: B1 VH
VL: B1 VL with C32Y, S91C
modifications: Cys at 91 carries the group named in the row
Blocking efficiency of S47 (PD-1 [2]): 25 fold

B3: J43v2 TMEAbody (anti-mouse PD-1 antibody J43v2, Ser95 on LC) (antibody, mouse IgG2a, V domains shown)
VH: EVRLLESGGGLVKPEGSLKLSCVASGFTFSDYFMSWVRQAPGKGLEWVAHIYTKSYNYATYYSGSVKGRFTISRDDSRSMVYLQMNNLRTEDTATYYCTRDGSGYPSLDFWGQGTQVTVSS
VL: YELTQPPSASVNVGETVKITCSGDQLPKYFADWFHQRSDQTILQVIYDDNKRPSGIPERISGSSSGTTATLTIRDVRAEDEGDYYCFSGYVDSDCKLYVFGSGTQLTVLG
modifications: functional moiety on Cys 95 (which R1-R2-R3-R4 is not stated)
notes: Heavy chain re-formatted into mouse IgG2a
blocking efficiency (fold) (mouse PD-1 protein): 35 fold

B4: anti-CTLA-4 antibody light chain A35C (antibody, human IgG1, kappa, V domains shown)
VH: QVQLVESGGGVVQPGRSLRLSCAASGFTFSSYTMHWVRQAPGKGLEWVTFISYDGNNKYYADSVKGRFTISRDNSKNTLYLQMNSLRAEDTAIYYCARTGWLGPFDYWGQGTLVTVSS
VL: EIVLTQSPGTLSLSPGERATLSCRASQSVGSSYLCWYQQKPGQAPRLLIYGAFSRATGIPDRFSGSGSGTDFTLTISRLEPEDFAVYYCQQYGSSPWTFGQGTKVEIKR
binding activity (OD after mutation/OD wild type) (CTLA-4 [3]): 70 to 90%

B5: anti-CTLA-4 antibody light chain L34C (antibody, human IgG1, kappa, V domains shown)
VH: B4 VH
VL: not shown
binding activity (OD after mutation/OD wild type) (CTLA-4 [3]): 70 to 90%

B6: anti-CTLA-4 antibody light chain T98C (antibody, human IgG1, kappa, V domains shown)
VH: B4 VH
VL: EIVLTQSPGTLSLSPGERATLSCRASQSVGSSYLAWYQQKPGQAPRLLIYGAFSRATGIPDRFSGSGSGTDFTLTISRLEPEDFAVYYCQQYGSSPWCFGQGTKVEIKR
binding activity (OD after mutation/OD wild type) (CTLA-4 [3]): 70 to 90%

B7: Ipi-se009 (Ipilimumab light chain Ser54Cys, Kabat L53) (antibody, human IgG1, kappa, V domains shown)
VH: B4 VH
VL: not shown
modifications: Cys at 54 (Kabat L53) carries the group named in the row
Activity after S47 (40 kD) blocking (CTLA-4 [4]): 5% | Binding activity (CTLA-4 [5]): 98% | Blocking efficiency (RBA), fold change of IC50 [6]: 18 fold | Blocking efficiency after conjugation with S47 [7]: 22 fold | Binding activity (CTLA-4 [8]): 98%

B8: anti-CTLA-4 antibody light chain Y33C (antibody, human IgG1, kappa, V domains shown)
VH: B4 VH
VL: not shown
binding activity vs wild type (CTLA-4 [9]): < 70%

B9: anti-CTLA-4 antibody light chain A52C (antibody, human IgG1, kappa, V domains shown)
VH: B4 VH
VL: not shown
binding activity vs wild type (CTLA-4 [9]): < 70%

B10: anti-CTLA-4 antibody light chain Y92C (antibody, human IgG1, kappa, V domains shown)
VH: B4 VH
VL: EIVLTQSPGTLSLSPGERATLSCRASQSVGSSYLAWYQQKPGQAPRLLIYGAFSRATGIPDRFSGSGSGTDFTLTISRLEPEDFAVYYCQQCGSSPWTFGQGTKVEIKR
binding activity vs wild type (CTLA-4 [9]): < 70%

B11: anti-CTLA-4 antibody light chain A56C (antibody, human IgG1, kappa, V domains shown)
VH: B4 VH
VL: not shown
binding activity (OD after mutation/OD wild type) (CTLA-4 [3]): 70 to 90%

B12: Pem-se007 (Pembrolizumab light chain Gly28Cys) (antibody, human IgG4 S228P, kappa, V domains shown)
VH: QVQLVQSGVEVKKPGASVKVSCKASGYTFTNYYMYWVRQAPGQGLEWMGGINPSNGGTNFNEKFKNRVTLTTDSSTTTAYMELKSLQFDDTAVYYCARRDYRFDMGFDYWGQGTTVTVSS
VL: EIVLTQSPATLSLSPGERATLSCRASKCVSTSGYSYLHWYQQKPGQAPRLLIYLASYLESGVPARFSGSGSGTDFTLTISSLEPEDFAVYYCQHSRDLPLTFGGGTKVEIKR
modifications: Cys at 28 carries the group named in the row
Blocking efficiency of S47 [10]: 8 fold

B13: chemically modified IL2 Arg38Asp/Glu61Arg with Lys9 and Lys76 conjugated with R4-7 (other)
chain: APASSTKCTQLQLEHLLLDLQMILNGINNYKNPKLTDMLTFKFYMPKKATELKHLQCLERELKPLEEVLNLAQSCNFHLRPRDLISNINVIVLELKGSETTFMCEYADETATIVEFLNRWITFSQSIISTLT
modifications: R4-7 on Cys 9 and Cys 76
notes: also called a new chemically modified IL2
fold increase of binding (IL2Rβ-Fc): 1.35 fold

B14: 9D9 TMEAbody (anti-mouse CTLA-4 antibody 9D9, Tyr54 on LC) (antibody, mouse IgG2b, kappa)
heavy: EAKLQESGPVLVKPGASVKMSCKASGYTFTDYYMNWVKQSHGKSLEWIGVINPYNGDTSYNQKFKGKATLTVDKSSSTAYMELNSLTSEDSAVYYCARYYGSWFAYWGQGTLITVSTAKTTPPSVYPLAPGCGDTTGSSVTLGCLVKGYFPESVTVTWNSGSLSSSVHTFPALLQSGLYTMSSSVTVPSSTWPSQTVTCSVAHPASSTTVDKKLEPSGPISTINPCPPCKECHKCPAPNLEGGPSVFIFPPNIKDVLMISLTPKVTCVVVDVSEDDPDVQISWFVNNVEVHTAQTQTHREDYNSTIRVVSTLPIQHQDWMSGKEFKCKVNNKDLPSPIERTISKIKGLVRAPQVYILPPPAEQLSRKDVSLTCLVVGFNPGDISVEWTSNGHTEENYKDTAPVLDSDGSYFIYSKLNMKTSKWEKTDSFSCNVRHEGLKNYYLKKTISRSPGK
light: DIVMTQTTLSLPVSLGDQASISCRSSQSIVHSNGNTYLEWYLQKPGQSPKLLICKVSNRFSGVPDRFSGSGSGTDFTLKISRVEAEDLGVYYCFQGSHVPYTFGGGTKLEIKRADAAPTVSIFPPSSEQLTSGGASVVCFLNNFYPKDINVKWKIDGSERQNGVLNSWTDQDSKDSTYSMSSTLTLTKDEYERHNSYTCEATHKTSTSPIVKSFNRNEC
modifications: functional moiety on Cys 54 (which R1-R2-R3-R4 is not stated)
notes: mIgG2b isotype
blocking efficiency (fold) (mouse CTLA-4 protein): 26 fold

B15: anti-CD28 antibody light chain G99C-R4-1 (antibody, human IgG4, kappa, V domains shown)
VH: QVQLVQSGAEVKKPGASVKVSCKASGYTFTSYYIHWVRQAPGQGLEWIGCIYPGNVNTNYNEKFKDRATLTVDTSISTAYMELSRLRSDDTAVYFCTRSHYGLDWNFDVWGQGTTVTVSS
VL: not shown
modifications: R4-1 on Cys 99
binding activity (% of WT) (CD28): 96.6%

B16: anti-CD28 antibody light chain T93C-R4-1 (antibody, human IgG4, kappa, V domains shown)
VH: B15 VH
VL: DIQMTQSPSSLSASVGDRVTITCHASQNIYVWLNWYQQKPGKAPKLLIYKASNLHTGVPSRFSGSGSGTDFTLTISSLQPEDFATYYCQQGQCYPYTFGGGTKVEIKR
modifications: R4-1 on Cys 93
binding activity (% of WT) (CD28): 87%

B17: Beva-se001 conjugated to S47 (antibody, human IgG1, kappa, V domains shown)
VH: EVQLVESGGGLVQPGGSLRLSCAASGYTFTNYGMNWVRQAPGKGLEWVGWINTYTGEPTYAADFCRRFTFSLDTSKSTAYLQMNSLRAEDTAVYYCAKYPHYYGSSHWYFDVWGQGTLVTVSS
VL: DIQMTQSPSSLSASVGDRVTITCSASQDISNYLNWYQQKPGKAPKVLIYFTSSLHSGVPSRFSGSGSGTDFTLTISSLQPEDFATYYCQQYSTVPWTFGQGTKVEIKR
modifications: S47 on Cys 65
notes: Bevacizumab mutant
Blocking efficiency of S47 (His tagged VEGF protein): 9 fold
